The source of these data is patent publication US10500249B2, “Compositions and methods for preventing or treating diseases, conditions, or processes characterized by aberrant fibroblast proliferation and extracellular matrix deposition” (MOERAE MATRIX, INC., priority 2014, dated 2019).

Common to all, as to assay: Kinase Profiling Assay
Holding throughout (format): biochemical
What all share (settings): 100 μM

Assay [1] addresses Lck (h) activated (Homo sapiens, UniProt P06239). In outline: (§1)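 Specificity of MK2 inhibitory peptides is assessed against a panel of 266 human kinases. Kinase transfers a radiolabeled phosphate from ATP onto a positively charged substrate, which is trapped on a negatively charged filter and quantified by scintillation counting against full-activity control; duplicate determinations.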

Assay [2] concerns the target T1, PKBγ (h) (Homo sapiens, UniProt Q9Y243).
T1 construct: purchased Millipore
In outline: as §1

Assay [3] addresses Ret (V804L) (h) (Homo sapiens, UniProt P07949, V804L). In outline: as §1
For assay [4], the target named is T2, Rse (h) (Homo sapiens, UniProt Q06418).
T2 sequence (Q06418 41-890): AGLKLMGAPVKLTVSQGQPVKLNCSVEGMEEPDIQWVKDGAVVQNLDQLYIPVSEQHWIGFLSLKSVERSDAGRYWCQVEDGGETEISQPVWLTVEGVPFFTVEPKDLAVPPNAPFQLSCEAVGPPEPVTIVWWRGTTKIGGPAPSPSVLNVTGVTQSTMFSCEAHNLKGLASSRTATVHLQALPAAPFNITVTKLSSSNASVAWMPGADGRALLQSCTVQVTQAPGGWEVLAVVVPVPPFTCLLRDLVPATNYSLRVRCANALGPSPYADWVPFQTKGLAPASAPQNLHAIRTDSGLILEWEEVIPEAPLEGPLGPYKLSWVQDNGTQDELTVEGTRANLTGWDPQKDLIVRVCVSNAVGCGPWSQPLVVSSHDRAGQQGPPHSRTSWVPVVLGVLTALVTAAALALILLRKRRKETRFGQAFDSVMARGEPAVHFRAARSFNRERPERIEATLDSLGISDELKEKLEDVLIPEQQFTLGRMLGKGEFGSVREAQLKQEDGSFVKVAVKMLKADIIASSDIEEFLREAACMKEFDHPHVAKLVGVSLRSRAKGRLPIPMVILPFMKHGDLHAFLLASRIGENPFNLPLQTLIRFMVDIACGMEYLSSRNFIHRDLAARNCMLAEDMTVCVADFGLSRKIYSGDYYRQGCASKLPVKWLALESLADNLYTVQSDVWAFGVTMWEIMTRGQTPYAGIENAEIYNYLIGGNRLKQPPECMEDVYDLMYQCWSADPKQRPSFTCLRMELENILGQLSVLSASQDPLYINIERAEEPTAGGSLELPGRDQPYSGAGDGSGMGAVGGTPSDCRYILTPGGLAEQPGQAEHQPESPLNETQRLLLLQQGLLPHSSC
An outline of the steps: as §1

Assay [5] concerns the target T3, MSK1 (h) (Homo sapiens, UniProt O75582).
T3 construct: purchased Millipore
An outline of the steps: as §1

Assay [6] addresses T4, CHK2 (h) (Homo sapiens, UniProt O96017).
T4 construct: purchased Millipore
An outline of the steps:
as §1

In assay [7] the target is T5, DAPK2 (h) (Homo sapiens, UniProt Q9UIK4).
T5 construct: purchased Millipore
In outline: as §1

Assay [8] has as its target LOK (h) (Homo sapiens, UniProt O94804). An outline of the steps:
as §1

Assay [9] has as its target EphA7 (h) (Homo sapiens, UniProt Q15375). In outline: as §1
The target of assay [10] is T6, PASK (h) (Homo sapiens, UniProt Q96RG2).
T6 construct: purchased Millipore
In outline:
as §1

For assay [11], the target named is ROCK-I (h) (Homo sapiens, UniProt Q13464). An outline of the steps:
as §1

The target of assay [12] is T7, PKD2 (h) (Homo sapiens, UniProt Q9BZL6).
T7 sequence (Q9BZL6 1-878): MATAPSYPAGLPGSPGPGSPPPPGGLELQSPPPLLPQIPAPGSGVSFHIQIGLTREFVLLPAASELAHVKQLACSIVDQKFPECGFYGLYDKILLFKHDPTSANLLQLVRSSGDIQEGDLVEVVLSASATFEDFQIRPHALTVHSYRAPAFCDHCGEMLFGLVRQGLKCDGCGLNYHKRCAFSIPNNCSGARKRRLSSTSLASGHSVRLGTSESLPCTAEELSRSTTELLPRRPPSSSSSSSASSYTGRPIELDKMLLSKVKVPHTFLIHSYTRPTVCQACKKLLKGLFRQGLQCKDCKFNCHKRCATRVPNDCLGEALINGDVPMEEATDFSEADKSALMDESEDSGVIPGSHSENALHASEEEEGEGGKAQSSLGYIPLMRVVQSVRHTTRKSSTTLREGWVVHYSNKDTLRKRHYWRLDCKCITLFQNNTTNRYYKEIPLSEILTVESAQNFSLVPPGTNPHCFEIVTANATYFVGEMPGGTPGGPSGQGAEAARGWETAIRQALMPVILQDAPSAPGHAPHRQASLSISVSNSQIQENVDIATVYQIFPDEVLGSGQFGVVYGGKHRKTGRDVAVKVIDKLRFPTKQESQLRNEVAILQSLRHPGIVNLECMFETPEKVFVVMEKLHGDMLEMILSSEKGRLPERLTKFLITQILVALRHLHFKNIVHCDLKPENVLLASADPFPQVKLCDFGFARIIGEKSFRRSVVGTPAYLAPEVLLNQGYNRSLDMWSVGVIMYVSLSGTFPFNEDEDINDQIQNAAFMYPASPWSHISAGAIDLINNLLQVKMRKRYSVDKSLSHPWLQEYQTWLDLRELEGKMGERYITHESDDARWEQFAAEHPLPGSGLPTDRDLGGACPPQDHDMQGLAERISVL
In outline:
as §1

Assay [13] deals with Fms (h) (Homo sapiens, UniProt P07333). An outline of the steps: as §1
The target in assay [14] is FGFR3 (h) (Homo sapiens, UniProt P22607). An outline of the steps: as §1
Assay [15] addresses ACK1 (h) (Homo sapiens, UniProt Q07912). In outline: as §1

Chain of FGFR3 (h) (P22607 23-806): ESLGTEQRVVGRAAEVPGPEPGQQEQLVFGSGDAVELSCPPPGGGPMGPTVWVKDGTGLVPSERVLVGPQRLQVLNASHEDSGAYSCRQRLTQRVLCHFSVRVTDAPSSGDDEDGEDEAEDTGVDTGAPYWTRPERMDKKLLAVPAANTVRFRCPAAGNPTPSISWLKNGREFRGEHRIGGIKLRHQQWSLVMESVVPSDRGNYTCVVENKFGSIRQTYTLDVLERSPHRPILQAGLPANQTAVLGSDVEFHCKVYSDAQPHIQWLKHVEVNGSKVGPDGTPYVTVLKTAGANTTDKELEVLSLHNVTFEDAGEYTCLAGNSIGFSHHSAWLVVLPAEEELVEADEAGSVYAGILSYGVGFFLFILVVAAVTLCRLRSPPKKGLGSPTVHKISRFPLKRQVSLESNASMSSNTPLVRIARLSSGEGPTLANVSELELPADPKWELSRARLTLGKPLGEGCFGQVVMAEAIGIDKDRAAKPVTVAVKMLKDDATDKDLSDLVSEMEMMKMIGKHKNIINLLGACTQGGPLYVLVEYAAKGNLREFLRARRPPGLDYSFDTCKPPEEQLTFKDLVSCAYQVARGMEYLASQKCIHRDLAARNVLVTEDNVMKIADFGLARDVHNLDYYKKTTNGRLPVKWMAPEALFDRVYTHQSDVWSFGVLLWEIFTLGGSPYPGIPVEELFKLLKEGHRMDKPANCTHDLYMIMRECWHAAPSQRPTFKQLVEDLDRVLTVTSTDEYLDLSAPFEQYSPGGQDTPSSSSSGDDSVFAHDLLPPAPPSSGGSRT
T4 sequence (O96017 whole entry): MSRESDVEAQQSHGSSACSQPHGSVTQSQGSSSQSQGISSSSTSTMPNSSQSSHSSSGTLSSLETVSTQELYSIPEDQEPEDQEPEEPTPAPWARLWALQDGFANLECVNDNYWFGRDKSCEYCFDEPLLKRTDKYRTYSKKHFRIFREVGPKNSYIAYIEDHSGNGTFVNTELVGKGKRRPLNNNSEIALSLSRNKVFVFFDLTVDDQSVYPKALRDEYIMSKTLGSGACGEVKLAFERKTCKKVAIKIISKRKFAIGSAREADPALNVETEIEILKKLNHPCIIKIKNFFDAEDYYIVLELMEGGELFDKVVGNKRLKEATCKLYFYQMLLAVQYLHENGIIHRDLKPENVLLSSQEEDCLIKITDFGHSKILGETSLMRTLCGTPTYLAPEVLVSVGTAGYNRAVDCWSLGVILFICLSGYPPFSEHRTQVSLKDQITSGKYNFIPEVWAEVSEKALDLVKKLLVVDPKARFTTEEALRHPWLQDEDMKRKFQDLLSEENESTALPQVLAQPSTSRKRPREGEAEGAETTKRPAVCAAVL
T1 sequence (Q9Y243 whole entry): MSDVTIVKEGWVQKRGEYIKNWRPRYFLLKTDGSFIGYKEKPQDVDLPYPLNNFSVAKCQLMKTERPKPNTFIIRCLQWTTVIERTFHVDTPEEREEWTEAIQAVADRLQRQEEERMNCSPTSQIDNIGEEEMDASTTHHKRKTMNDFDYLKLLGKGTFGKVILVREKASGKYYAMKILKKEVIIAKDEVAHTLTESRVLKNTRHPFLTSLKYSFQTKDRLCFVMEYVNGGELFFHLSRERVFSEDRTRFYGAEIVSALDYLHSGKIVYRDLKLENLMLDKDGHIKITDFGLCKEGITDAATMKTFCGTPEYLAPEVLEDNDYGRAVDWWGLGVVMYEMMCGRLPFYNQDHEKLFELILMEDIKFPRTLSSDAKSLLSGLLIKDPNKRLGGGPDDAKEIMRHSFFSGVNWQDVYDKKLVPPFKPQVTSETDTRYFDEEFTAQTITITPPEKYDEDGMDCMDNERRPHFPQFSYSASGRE
T6 sequence (Q96RG2 whole entry): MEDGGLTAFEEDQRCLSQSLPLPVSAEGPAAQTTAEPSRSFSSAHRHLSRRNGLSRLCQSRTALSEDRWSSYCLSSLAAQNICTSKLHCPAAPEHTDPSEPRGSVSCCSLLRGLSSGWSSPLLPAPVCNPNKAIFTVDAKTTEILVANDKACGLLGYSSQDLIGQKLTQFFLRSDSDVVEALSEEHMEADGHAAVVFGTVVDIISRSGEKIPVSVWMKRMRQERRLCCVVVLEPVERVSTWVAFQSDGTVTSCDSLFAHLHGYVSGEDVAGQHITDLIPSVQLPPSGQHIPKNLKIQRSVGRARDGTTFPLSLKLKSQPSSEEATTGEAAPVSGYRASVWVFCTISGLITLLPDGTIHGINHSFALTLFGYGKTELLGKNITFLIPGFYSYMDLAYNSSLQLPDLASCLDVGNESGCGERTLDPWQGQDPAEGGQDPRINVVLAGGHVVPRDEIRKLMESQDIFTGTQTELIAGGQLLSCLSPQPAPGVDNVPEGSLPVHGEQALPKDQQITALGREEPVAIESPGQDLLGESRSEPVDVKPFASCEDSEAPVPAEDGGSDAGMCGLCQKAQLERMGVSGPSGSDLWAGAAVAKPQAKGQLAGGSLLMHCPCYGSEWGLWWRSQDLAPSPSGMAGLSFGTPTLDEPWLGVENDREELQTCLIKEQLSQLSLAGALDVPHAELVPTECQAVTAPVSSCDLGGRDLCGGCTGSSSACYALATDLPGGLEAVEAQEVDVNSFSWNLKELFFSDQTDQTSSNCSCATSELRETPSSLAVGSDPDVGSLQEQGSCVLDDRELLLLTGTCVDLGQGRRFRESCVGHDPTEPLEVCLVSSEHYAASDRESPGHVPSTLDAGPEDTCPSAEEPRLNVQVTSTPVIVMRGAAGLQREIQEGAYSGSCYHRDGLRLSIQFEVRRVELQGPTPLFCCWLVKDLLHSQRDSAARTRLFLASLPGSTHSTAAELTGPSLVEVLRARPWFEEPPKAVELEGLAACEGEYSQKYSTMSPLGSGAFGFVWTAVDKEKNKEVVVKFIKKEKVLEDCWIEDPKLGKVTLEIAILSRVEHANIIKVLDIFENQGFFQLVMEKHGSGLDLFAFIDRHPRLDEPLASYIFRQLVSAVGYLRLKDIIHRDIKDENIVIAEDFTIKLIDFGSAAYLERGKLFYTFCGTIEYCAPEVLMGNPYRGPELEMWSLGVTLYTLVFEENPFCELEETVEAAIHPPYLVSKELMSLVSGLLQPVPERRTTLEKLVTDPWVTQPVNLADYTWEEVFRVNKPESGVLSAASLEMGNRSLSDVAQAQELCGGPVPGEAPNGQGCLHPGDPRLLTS
Chain of ROCK-I (h) (Q13464 whole entry): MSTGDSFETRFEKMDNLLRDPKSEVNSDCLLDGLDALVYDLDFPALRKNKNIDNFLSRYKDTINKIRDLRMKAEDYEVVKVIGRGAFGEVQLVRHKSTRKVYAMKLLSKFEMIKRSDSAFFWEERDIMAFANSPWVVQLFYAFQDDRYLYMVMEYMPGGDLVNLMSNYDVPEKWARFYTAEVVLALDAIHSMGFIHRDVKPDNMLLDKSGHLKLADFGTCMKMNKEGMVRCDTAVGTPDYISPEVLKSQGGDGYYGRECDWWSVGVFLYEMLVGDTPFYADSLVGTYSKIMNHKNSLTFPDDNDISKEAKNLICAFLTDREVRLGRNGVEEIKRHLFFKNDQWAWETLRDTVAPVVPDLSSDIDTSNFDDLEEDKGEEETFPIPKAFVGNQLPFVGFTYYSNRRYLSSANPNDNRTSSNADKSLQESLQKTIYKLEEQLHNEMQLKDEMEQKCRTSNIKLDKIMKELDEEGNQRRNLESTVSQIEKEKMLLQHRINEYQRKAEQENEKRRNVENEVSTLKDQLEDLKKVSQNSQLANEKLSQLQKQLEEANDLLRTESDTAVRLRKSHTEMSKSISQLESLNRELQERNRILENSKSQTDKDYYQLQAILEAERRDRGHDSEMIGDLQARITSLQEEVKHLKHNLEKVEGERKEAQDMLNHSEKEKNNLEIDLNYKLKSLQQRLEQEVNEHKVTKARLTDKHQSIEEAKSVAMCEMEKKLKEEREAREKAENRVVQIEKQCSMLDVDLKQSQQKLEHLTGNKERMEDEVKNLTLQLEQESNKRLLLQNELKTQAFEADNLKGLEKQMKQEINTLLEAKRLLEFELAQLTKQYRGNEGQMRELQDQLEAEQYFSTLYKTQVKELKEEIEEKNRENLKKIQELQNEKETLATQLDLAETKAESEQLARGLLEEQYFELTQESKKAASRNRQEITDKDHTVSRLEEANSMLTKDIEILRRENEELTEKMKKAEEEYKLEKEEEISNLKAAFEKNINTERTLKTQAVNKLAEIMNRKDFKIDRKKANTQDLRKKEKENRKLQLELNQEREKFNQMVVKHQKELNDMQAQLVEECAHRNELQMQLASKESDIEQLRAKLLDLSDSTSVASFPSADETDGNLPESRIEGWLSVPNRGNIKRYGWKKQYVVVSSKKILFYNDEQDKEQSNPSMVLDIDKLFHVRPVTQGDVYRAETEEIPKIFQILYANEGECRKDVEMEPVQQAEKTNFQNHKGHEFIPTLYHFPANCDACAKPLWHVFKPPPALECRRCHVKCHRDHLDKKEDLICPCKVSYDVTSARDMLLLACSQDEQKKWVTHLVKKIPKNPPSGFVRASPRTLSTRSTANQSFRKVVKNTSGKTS
Chain of Lck (h) activated (P06239 whole entry): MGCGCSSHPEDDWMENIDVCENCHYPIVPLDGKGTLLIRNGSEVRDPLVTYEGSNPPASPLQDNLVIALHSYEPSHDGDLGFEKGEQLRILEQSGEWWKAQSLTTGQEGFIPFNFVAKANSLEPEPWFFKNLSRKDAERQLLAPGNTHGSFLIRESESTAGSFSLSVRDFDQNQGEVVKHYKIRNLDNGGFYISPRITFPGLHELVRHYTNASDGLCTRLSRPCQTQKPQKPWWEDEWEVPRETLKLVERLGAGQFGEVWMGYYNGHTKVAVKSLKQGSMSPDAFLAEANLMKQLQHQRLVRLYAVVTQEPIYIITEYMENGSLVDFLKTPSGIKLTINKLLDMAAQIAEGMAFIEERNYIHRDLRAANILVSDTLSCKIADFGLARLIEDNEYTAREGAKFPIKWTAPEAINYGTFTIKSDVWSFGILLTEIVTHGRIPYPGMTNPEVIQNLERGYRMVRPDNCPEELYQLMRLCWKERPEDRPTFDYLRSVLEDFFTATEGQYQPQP

KAFAKLAARLYRKALARQLGVAA [MMI-0400]: the “% activity” value in assay [1] is on record as 216%; in [2] it was 41%; in assay [3] it was 73%; in assay [4], 89%; in [5], 28%; in assay [6], 54%. The “% activity” value turned out to be 16% in [7]; 18% in [8]; 222% in assay [9]; 28% in [10]; 73% in assay [11]; 25% in assay [12]. Further, the entries for the “% activity” value in [13], in [14] and in [15] were 37%, 0% and 95%, respectively.
Turning to “YARAAARQARAKALNRQLGVA (Mammalian) [MMI-0200]”, the “% activity” value is given as 90% in assay [1]; 100% in assay [3]; 88% in assay [4]; 50% in [5]; 92% in assay [7]; 67% in assay [8]. The “% activity” value in [9] turned out to be 220%; in assay [10], 60%; in [12], 78%; in assay [13], 92%; in [14], 208%; in assay [15] it was 97%.
As to “HRRIKAWLKKIKALARQLGVAA (Mammalian) [MMI-0500]”, the “% activity” value in assay [1] was 76%; in assay [2], 20%; in assay [3], 20%; in [4] it was 63%; in assay [5], 8%; in assay [6] it was 13%. The “% activity” value in assay [7] amounted to 3%; in [8], 7%; in [9] it was 189%; in assay [10] it was 9%; in assay [11], 17%; in [12], 10%. Besides, the “% activity” value is reported as 14% in assay [13], 10% in assay [14] and 64% in assay [15].
On to FAKLAARLYRKALARQLGVAA [MMI-0300], for which the “% activity” value in assay [1] turned out to be 243%; in assay [2], 20%; in assay [3], 79%; in [4], 88%; in assay [5], 32%; in assay [6], 66%. Besides, the “% activity” value in assay [7] is 32%; in [8], 37%; in [9], 159%; in [10] it was 29%; in [11], 79%; in [12], 33%. In assay [13], the “% activity” value is recorded as 45%.
